Test results from patent publication US20260028422A1 (CONCEPT TO MEDICINE BIOTECH, published 2026).

T1: cyno MerTK-his protein (cynomolgus, UniProt A0A2K5V1H9 27-505)
T1 construct: also called cyno MerTK protein; Cynomolgus
T1 sequence: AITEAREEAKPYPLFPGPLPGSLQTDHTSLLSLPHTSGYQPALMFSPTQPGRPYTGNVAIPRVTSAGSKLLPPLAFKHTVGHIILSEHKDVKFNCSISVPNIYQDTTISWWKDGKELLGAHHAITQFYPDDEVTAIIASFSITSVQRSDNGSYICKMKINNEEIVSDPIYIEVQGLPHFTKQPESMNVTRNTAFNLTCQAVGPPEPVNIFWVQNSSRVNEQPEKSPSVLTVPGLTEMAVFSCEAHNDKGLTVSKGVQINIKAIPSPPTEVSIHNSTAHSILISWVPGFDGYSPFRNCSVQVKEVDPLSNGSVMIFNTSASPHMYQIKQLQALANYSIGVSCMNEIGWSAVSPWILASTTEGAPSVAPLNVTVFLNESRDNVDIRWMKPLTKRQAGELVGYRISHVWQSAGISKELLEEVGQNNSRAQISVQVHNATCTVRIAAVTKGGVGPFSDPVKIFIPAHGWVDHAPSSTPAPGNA

T2: human MerTK-his protein (human, UniProt Q12866 21-505)
T2 construct: extracellular domain; also called hMerTK-His; human MerTK protein
T2 sequence (looked up): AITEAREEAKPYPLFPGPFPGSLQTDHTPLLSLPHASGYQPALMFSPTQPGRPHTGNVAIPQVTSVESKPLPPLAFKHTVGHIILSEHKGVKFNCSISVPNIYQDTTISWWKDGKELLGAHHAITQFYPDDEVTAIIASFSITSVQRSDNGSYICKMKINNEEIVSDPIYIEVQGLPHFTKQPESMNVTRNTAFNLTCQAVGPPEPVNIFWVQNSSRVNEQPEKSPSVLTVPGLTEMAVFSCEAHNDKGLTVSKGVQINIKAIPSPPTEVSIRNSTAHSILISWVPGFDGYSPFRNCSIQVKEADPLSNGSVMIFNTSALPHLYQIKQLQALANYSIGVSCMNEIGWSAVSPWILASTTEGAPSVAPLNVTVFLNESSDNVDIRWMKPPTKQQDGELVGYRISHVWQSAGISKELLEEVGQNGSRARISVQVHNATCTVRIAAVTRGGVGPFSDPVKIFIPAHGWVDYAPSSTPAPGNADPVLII

T3: human MerTK expressed on cells (human, UniProt Q12866 21-999)
T3 construct: whole, on cells; also called CHO-K1-hMerTK; CHO-K1-MerTK
T3 sequence (looked up): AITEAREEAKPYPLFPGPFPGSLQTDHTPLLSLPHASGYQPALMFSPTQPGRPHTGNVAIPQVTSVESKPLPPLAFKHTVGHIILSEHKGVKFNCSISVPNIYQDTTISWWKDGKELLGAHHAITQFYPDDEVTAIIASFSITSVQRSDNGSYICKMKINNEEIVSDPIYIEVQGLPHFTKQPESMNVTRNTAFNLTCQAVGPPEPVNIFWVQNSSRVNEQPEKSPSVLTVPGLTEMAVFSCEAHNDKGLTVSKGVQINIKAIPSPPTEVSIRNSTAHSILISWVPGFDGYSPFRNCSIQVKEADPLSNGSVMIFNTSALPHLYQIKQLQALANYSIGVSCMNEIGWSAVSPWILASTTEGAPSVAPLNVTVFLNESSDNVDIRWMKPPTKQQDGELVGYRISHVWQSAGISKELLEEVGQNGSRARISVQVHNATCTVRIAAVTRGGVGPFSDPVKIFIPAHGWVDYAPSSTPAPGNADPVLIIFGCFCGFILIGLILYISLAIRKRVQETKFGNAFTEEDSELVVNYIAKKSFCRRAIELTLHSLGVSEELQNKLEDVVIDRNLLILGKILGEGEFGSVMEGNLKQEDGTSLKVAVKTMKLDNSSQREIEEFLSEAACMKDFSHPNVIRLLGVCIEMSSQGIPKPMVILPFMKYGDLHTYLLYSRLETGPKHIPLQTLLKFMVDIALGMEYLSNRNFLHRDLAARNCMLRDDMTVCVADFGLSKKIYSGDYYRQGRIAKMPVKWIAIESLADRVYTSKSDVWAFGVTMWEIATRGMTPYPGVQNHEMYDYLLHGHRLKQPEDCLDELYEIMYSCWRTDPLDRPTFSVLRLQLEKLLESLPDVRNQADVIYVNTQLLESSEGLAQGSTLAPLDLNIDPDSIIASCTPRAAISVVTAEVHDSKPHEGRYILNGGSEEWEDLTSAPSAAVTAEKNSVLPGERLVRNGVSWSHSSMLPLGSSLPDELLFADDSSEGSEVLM


What was measured:
cyno MerTK-his protein = target: T1, cyno MerTK-his protein; assay: ELISA, coated cyno MerTK-his
Protocol: (§1) To evaluate the binding activity, the chimeric mAbs were subjected to ELISA test. Briefly, 96-well plates were coated with human or cyno MerTK-his protein at 2 μg/mL in PBS, 100 μL/well at 4° C. overnight, then blocked with 150 μL/well of 1% BSA. Five-fold dilutions of MerTK antibodies starting from 20 nM were added to each well and incubated for 1 hour at room temperature. The plates were washed with PBS/Tween-20 and then incubated with goat anti-human IgG Fe antibody conjugated with Horse Radish Peroxidase (HRP) for 30 minutes (mins) at room temperature. After washing, the plates were developed with TMB substrate and subsequent stop solution was added to complete the reaction. The signal from each well was read by spectrophotometer at OD 450 nm.

human MerTK-his protein = target: T2, human MerTK-his protein; assay: ELISA, coated human MerTK-his
Protocol: as §1

[1] = target: T3, human MerTK expressed on cells; assay: FACS on SK-MEL-5 cells expressing human MerTK, geometric mean
Protocol: To evaluate the binding properties on MerTK expressed on cells, the chimeric monoclonal antibodies were analyzed for their binding to human melanoma cell line SK-MEL-5 expressing MerTK by FACS analysis. Briefly, SK-MEL-5 cells were firstly incubated with 5-fold serially diluted chimeric mAbs starting at 20 nM at 4° C. for 30 mins. After washing by FACS buffer, the PE conjugated anti-human IgG secondary antibody was incubated with the cell-antibody complex in the wells at 4° C. for 30 mins to detect the antibodies those bound to the cells. The MFI of PE was evaluated by QuantAnalyzer 16.

Binder | EC50 (cyno MerTK-his protein) [nM] | EC50 (human MerTK-his protein) [nM] | EC50 [1] [nM] | Top [1] [Geometric Mean]
252C12B10 chimeric monoclonal antibody (antibody, V domains shown) VH: QVQLQQPGTELVKPGASVKLSCKTSGYTFTSYWMHWMKQRPGQGLEWLGHINPSTGGSNYNEKFKSKATLTVDKSSNTAYMQLSSLTSEDSAVYYCARPRGFYGYSYWYFDVWGSGTTVTVSS VL: DIQMTQTTSSLSASLGDRVTISCSASQDINNYLNWYQHKPDGTIKVLIYFTSSLHSGVPSRFSGSGSGTEYSLTISNLEPEDIATYYCQQYSKLPPTFGSGTKLEIK | 0.04 | 0.039 | 0.043 | 4460
247E5A8 chimeric monoclonal antibody (antibody, V domains shown) VH: DVQLQESGPGLVKPSQSLSLTCSVTGYSITGGYYWTWIRQFPGNKLEWMGYISYDGDNNYNPSLKNRISITRDTSKNQFFLNLNSVTTEDTATYYCAREGGRLRTMDYWGQGTSVTVSS VL: QIVLTQSPAIMSASPGEKVTITCRASSSVNYMHWFQQKPGTSPKLWIYTTSNLASGVPARFSGSGSGTSYSLTISRMEAEDAATYYCQQRSSYPFTFGSGTKLEIK | 0.037 | 0.032 | 0.094 | 7160
254B4D9 chimeric monoclonal antibody (antibody, V domains shown) VH: QIQLVQSGPELKKPGETVKISCKASGYTFTAYGMSWVKQAPGKGLQWMGWINTYSGVPTYTDDFKGRFAFSLEASASTAFLQINNLKNEDTSTYFCARRAAVVAKYWYFDVWGTGTTVTVSS VL: DIQMTQSPSSLFASLGGKVIITCKSSQDINKRISWYQHKPGKGPRLLIHSTSSLQPGIPLRFSGSGSGRDYSFSISNLEPEDIATYFCLQYDNLLTFGAGTKLELK | 0.056 | 0.047 | 0.18 | 4840
h13B4.v16 benchmark antibody (antibody, V domains shown) VH: EVQLVESGEGLVQPGGSLRLSCAASGFSLSSYAMGWVRQAPGKGLEYVGIINSYGNTYYANWAKGRFTISRDNSKNTVYLQMGSLRAEDMAVYYCARDPGVSSNLWGRGTLVTVSS VL: DIQMTQSPSTLSASVGDRVTITCQASQNIYSGLAWYQQKPGKAPKLLIYGASKLASGVPSRFSGSGSGTEFTLTISSLQPDDFATYYCQATYYSSNSVAFGGGTKVEIK | – | – | 0.092 | 4520
276C2D1 chimeric monoclonal antibody (antibody, V domains shown) VH: QVQLQQSGPELVKPGASVKLSCKASGYTFTSYDINWVKQRPGLGLEWIGWIYPRDGYTKYNEKFKGKATLAVDTSSSTAYMELHSLTSEDSAVYFCARGYYSNLYYFDYWGQGTTLTVSS VL: EVVLTQSPPTMAASPGEKITITCSASSSISSNYLHWYQQKPGFSPKLLIYRTSNLASGVPARFSGSGSGTSYSLTIGTMEAEDVATYYCQQGRSIPLTFGAGTKLELK | 0.02 | 0.019 | – | –
300A5A3 chimeric monoclonal antibody (antibody, V domains shown) VH: QVQLQQSGPELVKPGASVKLSCKASGYTFTTYDINWVKQRPGLGLEWIGWIYPRDGYTKYNEKFKGKATLAVDTSSSTASMELHSLTSEDSAVYFCARGYYDNLYYFDNWGPGTTLTVSS VL: ENVLTQSPTTVAASPGEKITITCSASSIISSNYLHWYQQKPGFSPKLLIYRTSNLASGVPARFSGSGSGTSYSLTIGTMEAEDAATYYCQQGRSVPLTFGAGTKLELK | 0.026 | 0.024 | – | –
216G3D6 chimeric monoclonal antibody (antibody, V domains shown) VH: QVTLKESGPGILQPSQTLSLTCSFSGFSLSTSGMGVGWIRQPSGKGLEWLAHIWWDDDKHCNPALKSRLTISKDTSSNQVFLKIASLDTADTATYYCTQMTMTREFAYWGQGTLVTVSA VL: DIQMTQTISSLSASLGDRVTISCSAGQGISNYLNWYQQKPDGTVKLLIYYTSRLHSGVPSRFSGSGSGTDFSLTISNLEPEDIATYFCQQYSKFPYTFGGGTKLEIK | 0.047 | 0.046 | 0.17 | 8270

Now from value to binder:

EC50 (cyno MerTK-his protein) [nM] | EC50 (human MerTK-his protein) [nM] | EC50 [1] [nM] | Top [1] [Geometric Mean] | Binder
0.014 | 0.012 | – | – | 280C6A3 chimeric monoclonal antibody (antibody, V domains shown) VH: QVQLQQSGPELVKPGASVKLSCKASGYSFTTYDINWVKQRPGQGLEWIGWIYPRDGSTKYNEKFKGKATLTLDTSSNTAYMGLHSLTSEDSAVYFCARGYYDNLYYFDYWGQGTTLTVSS VL: EIVLTQSPTTMAASPGEKITITCSASSSVSSNYLHWYQQKPGFSPKLLIYRTSNLASGVPARFSGSGSGTSYSLTIGTMEAEDVATYYCQQGRIVPLTFGAGTKLELK
0.017 | 0.0097 | – | – | 265F11B5 chimeric monoclonal antibody (antibody, V domains shown) VH: QVQLQQSGPELVKPGASVRLSCKASGYTFTTYDINWVKQRPGLGLEWIGWIYPRDGYTKYNEKFKGRATLAVDTSSSTAYMELHSLTSEDSAVYFCTRGYYDNLYYFDYWGQGTTLTVSS VL: EIVLTQSPTTVAASPGEKITITCSASSIISSNYFHWYQQRPGFSPKLLIYRTSNLASGVPARFSGSGSGTSYSLTIGTMEAEDVATYYCQQGRSVPLTFGAGTKLELK
0.02 | 0.017 | – | – | 293C2B7 chimeric monoclonal antibody (antibody, V domains shown) VH: QVQLQQSGPELVKPGASVKLSCKASGYTFTSYDINWVKQRPGQGLEWIGWIYPRDGYTKYKEKFKGKATLTVDTSSSTAYMELHSLTSEDSAVYFCARGFYSNLYYFDYWGQGTTLTVSS VL: EIVLTQSPTTMATSPGEKITITCSASSSISSNYLHWYQQKPGFSPKLLIYRTSNLASGVPDRFSGSGSGTSYSLTIGTMEAEDVATYYCQQGRSIPLTFGAGTKLELK
0.024 | 0.027 | 0.025 | 7070 | 10F7D9 chimeric monoclonal antibody (antibody, V domains shown) VH: QIQLVQSGPELKKPGETVKISCKASGYTFTNYGMNWVKQAPGKGLKWMGWINTYTGEPTYADDFKGRFAFSLETSASTAYLQINNLKNEDLATYFCATYGHYAWFAYWGQGTLVTVSA VL: QIVLSQSPAILSASPGEKVTMTCRASSSVSYMHWYQQKSGSSPKPWIYATSNLASGVPARFSGSGSGTSYSLTISRVEAEDAATYFCQQWGTKPLTFGAGTKLELK
0.024 | 0.025 | 0.022 | 6860 | 85H8D5 chimeric monoclonal antibody (antibody, V domains shown) VH: QIQLVQSGPELKKPGETVKISCMASGYTFTTHGVTWVKQAPGQGLQRMGWINTYSGVPTYADDFKGRFVFSLETSANTAHLQINNLKNEDTATYFCARTNNYRYFDVWGTGTTVTVSS VL: QIVLSQSPAILSSSPGEKVTMTCRASSSVSYMHWYQQKPGSSPKPWIYATSNLASGVPARFSGSGSGTSYFLTISRVEAEDAATYYCQQWNTDPPTFGGGTKLEIK
